Test results published in paper PMC8567202, “Phosphoinositide-binding activity of Smad2 is essential for its function in TGF-β signaling” (The Journal of Biological Chemistry, 2021).
Entries after “also recorded” stand apart in the source; their conditions may differ.

B1: Smad2-W422A: W422A mutant of full-length Smad2; specific PI(4,5)P2 binding-compromised (protein)
chain: MSSILPFTPPVVKRLLGWKKSAGGSGGAGGGEQNGQEEKWCEKAVKSLVKKLKKTGRLDELEKAITTQNCNTKCVTIPSTCSEIWGLSTANTVDQWDTTGLYSFSEQTRSLDGRLQVSHRKGLPHVIYCRLWRWPDLHSHHELKAIENCEYAFNLKKDEVCVNPYHYQRVETPVLPPVLVPRHTEILTELPPLDDYTHSIPENTNFPAGIEPQSNYIPETPPPGYISEDGETSDQQLNQSMDTGSPAELSPTTLSPVNHSLDLQPVTYSEPAFWCSIAYYELNQRVGETFHASQPSLTVDGFTDPSNSERFCLGLLSNVNRNATVEMTRRHIGRGVRLYYIGGEVFAECLSDSAIFVQSPNCNQRYGWHPATVCKIPPGCNLKIFNNQEFAALLAQSVNQGFEAVYQLTRMCTIRMSFVKGAGAEYRRQTVTSTPCWIELHLNGPLQWLDKVLTQMGSPSVRCSSMS
modifications: left off: His6, N-terminal, state not stated
B2: Smad2-Y426A: Y426A mutant of full-length Smad2; specific PI(4,5)P2 binding-compromised (protein)
chain: MSSILPFTPPVVKRLLGWKKSAGGSGGAGGGEQNGQEEKWCEKAVKSLVKKLKKTGRLDELEKAITTQNCNTKCVTIPSTCSEIWGLSTANTVDQWDTTGLYSFSEQTRSLDGRLQVSHRKGLPHVIYCRLWRWPDLHSHHELKAIENCEYAFNLKKDEVCVNPYHYQRVETPVLPPVLVPRHTEILTELPPLDDYTHSIPENTNFPAGIEPQSNYIPETPPPGYISEDGETSDQQLNQSMDTGSPAELSPTTLSPVNHSLDLQPVTYSEPAFWCSIAYYELNQRVGETFHASQPSLTVDGFTDPSNSERFCLGLLSNVNRNATVEMTRRHIGRGVRLYYIGGEVFAECLSDSAIFVQSPNCNQRYGWHPATVCKIPPGCNLKIFNNQEFAALLAQSVNQGFEAVYQLTRMCTIRMSFVKGWGAEARRQTVTSTPCWIELHLNGPLQWLDKVLTQMGSPSVRCSSMS
modifications: left off: His6, N-terminal, state not stated
B3: Smad2- R427A/R428A: double mutant of full-length Smad2; PI(4,5)P2 and TβRI binding-compromised (protein)
chain: MSSILPFTPPVVKRLLGWKKSAGGSGGAGGGEQNGQEEKWCEKAVKSLVKKLKKTGRLDELEKAITTQNCNTKCVTIPSTCSEIWGLSTANTVDQWDTTGLYSFSEQTRSLDGRLQVSHRKGLPHVIYCRLWRWPDLHSHHELKAIENCEYAFNLKKDEVCVNPYHYQRVETPVLPPVLVPRHTEILTELPPLDDYTHSIPENTNFPAGIEPQSNYIPETPPPGYISEDGETSDQQLNQSMDTGSPAELSPTTLSPVNHSLDLQPVTYSEPAFWCSIAYYELNQRVGETFHASQPSLTVDGFTDPSNSERFCLGLLSNVNRNATVEMTRRHIGRGVRLYYIGGEVFAECLSDSAIFVQSPNCNQRYGWHPATVCKIPPGCNLKIFNNQEFAALLAQSVNQGFEAVYQLTRMCTIRMSFVKGWGAEYAAQTVTSTPCWIELHLNGPLQWLDKVLTQMGSPSVRCSSMS
modifications: left off: His6, N-terminal, state not stated
B4: Smad2-K420A: K420A mutant of full-length Smad2; predominantly TβRI binding-compromised (protein)
chain: MSSILPFTPPVVKRLLGWKKSAGGSGGAGGGEQNGQEEKWCEKAVKSLVKKLKKTGRLDELEKAITTQNCNTKCVTIPSTCSEIWGLSTANTVDQWDTTGLYSFSEQTRSLDGRLQVSHRKGLPHVIYCRLWRWPDLHSHHELKAIENCEYAFNLKKDEVCVNPYHYQRVETPVLPPVLVPRHTEILTELPPLDDYTHSIPENTNFPAGIEPQSNYIPETPPPGYISEDGETSDQQLNQSMDTGSPAELSPTTLSPVNHSLDLQPVTYSEPAFWCSIAYYELNQRVGETFHASQPSLTVDGFTDPSNSERFCLGLLSNVNRNATVEMTRRHIGRGVRLYYIGGEVFAECLSDSAIFVQSPNCNQRYGWHPATVCKIPPGCNLKIFNNQEFAALLAQSVNQGFEAVYQLTRMCTIRMSFVAGWGAEYRRQTVTSTPCWIELHLNGPLQWLDKVLTQMGSPSVRCSSMS
modifications: left off: His6, N-terminal, state not stated
B5: EGFP-Smad2 WT: mouse EGFP-Smad2 wild type transfected into HeLa cells (protein, UniProt Q62432 2-467, looked up)
Mothers against …: SSILPFTPPVVKRLLGWKKSAGGSGGAGGGEQNGQEEKWCEKAVKSLVKKLKKTGRLDELEKAITTQNCNTKCVTIPSTCSEIWGLSTANTVDQWDTTGLYSFSEQTRSLDGRLQVSHRKGLPHVIYCRLWRWPDLHSHHELKAIENCEYAFNLKKDEVCVNPYHYQRVETPVLPPVLVPRHTEILTELPPLDDYTHSIPENTNFPAGIEPQSNYIPETPPPGYISEDGETSDQQLNQSMDTGSPAELSPTTLSPVNHSLDLQPVTYSEPAFWCSIAYYELNQRVGETFHASQPSLTVDGFTDPSNSERFCLGLLSNVNRNATVEMTRRHIGRGVRLYYIGGEVFAECLSDSAIFVQSPNCNQRYGWHPATVCKIPPGCNLKIFNNQEFAALLAQSVNQGFEAVYQLTRMCTIRMSFVKGWGAEYRRQTVTSTPCWIELHLNGPLQWLDKVLTQMGSPSVRCSSMS
modifications: EGFP fusion
notes: mouse EGFP-Smad2 wild type transfected into HeLa cells

How the values were obtained:
HeLa cells = assay: Nuclear translocation of EGFP-Smad2; format: cell-based; details: HeLa cells with endogenous Smad2 suppressed, 10 ng/ml TGF-β for 1 h
Description: Two separate gels were used to accommodate all mutants. An empty vector transfection (vehicle) was used for a negative control for each gel. Glyceraldehyde 3-phosphate dehydrogenase (GAPDH) was used as a gel loading control. Data in A and B are quantified in Fig. S3A. C, TGF-β stimulated (10 ng/ml for 1 h) nuclear translocation of mouse EGFP-WT, -K420A, -W422A, -E425K, -Y426A, and -R427A/R428A transfected into HeLa cells whose endogenous Smad2 was suppressed by siRNA. For Smad2-WT, the effect of PI(4,5)P2 depletion was measured. Arrows indicate nuclear accumulation of EGFP-WT and EGFP-E425K. Scale bars indicate 10 μm. D, quantification of (C). (Inuc/Icyto) was calculated from total nuclear and cytosolic fluorescence intensity values. Blank and black bars indicate values before and after TGF-β stimulation. Error bars indicate S.D. values from >3 measurements (n = 10). E, Smad2 transcriptional activity measured by the luciferase assay. Blank and black bars indicate values before and after TGF-β stimulation. Error bars indicate S.D. values from >3 measurements (n = 10).
The ratio of nuclear to cytoplasmic protein was calculated from the fluorescence intensity of nucleus (Inuc) and the cytoplasm (Fcyto) in cross-section images of cells using the line profile function of Image-Pro Plus software (Media Cybernetics). Briefly, at least five different lines were drawn across the cross-sectional image of each cell and the average Inuc and ICyto values were calculated along the lines. Typically, more than ten cell images were analyzed for each data set to determine the average and SD values.

[1] = system: TβRI L45 loop region peptide (F-Ahx-ADNKDNGT); assay: Fluorescence anisotropy binding to TβRI L45 peptide; details: for Kd: 20 mM Tris, pH 7.9, 160 mM NaCl, 10-min incubation, average ±S.D., n = 3
Text: (§1) However, this tentative assignment has been confirmed neither by a high-resolution structure of the Smad2-TβRI complex nor by a quantitative and systematic binding study, leaving uncertainty about the exact nature of the Smad2-TβRI-binding interface. Since the L3 loop is a part of the newly identified PI(4,5)P2-binding site, we checked if these PI(4,5)P2-binding residues are also involved in the Smad2-TβRI interaction using two fluorescein-labeled synthetic peptides derived from the GS region (i.e., GS peptide: fluorescein-aminohexanoyl (F-Ahx)-YDMTTpSGpSGpSGLPLL) and the L45 loop (i.e., L45 peptide: F-Ahx-ADNKDNGT), respectively. In particular, the GS peptide represents the GS motif triply phosphorylated by TβRII. We then measured binding to Smad2 WT and mutants to these peptides by fluorescence anisotropy according to our established protocol ([21]). […] We thus primarily used the GS peptide to assess the effects of mutations on the Smad2-TβRI interaction. […] They also yielded distinct structural variants for further functional studies. Specifically, W422A and Y426A could serve as specific PI(4,5)P2 binding-compromised mutants and K420A as a predominantly TβRI binding-compromised mutant. R427A/R428A could also serve as a PI(4,5)P2 and TβRI binding-compromised mutant, whereas E425K as a PI(4,5)P2 and TβRI binding-enhanced mutant.
(§2) Figure 3 Affinity of Smad2 WT and mutants for TβRI-derived peptides determined by fluorescence anisotropy.A, binding of Smad2 WT (black), W422A (red), Y420A (cyan), R427A/R428A (green), K420A (blue), and E425K (orange) to the GS peptide (F-Ahx-YDMTTpSGpSGpSGLPLL). […] B, binding of Smad2 WT (black), W422A (red), Y420A (cyan), R427A/R428A (green), K420A (blue), and E425K (orange) to the L45 loop peptide (F-Ahx-DNKDNGT). C, effects of 50 μM POPC/POPS/PI(4,5)P2 (77:20:3) LUVs on binding of Smad2 to the GS peptide. The presence of vesicles (orange) raises the Kd value from 20 ± 6 to 60 ± 7 nM. The peptide concentration was fixed at 2.5 nM, and the Smad2 concentration was varied from 0 to 150 μM. The experimentally observed anisotropy (A) values were normalized (Anorm) using the equation: Anorm = (A − Amin)/(Amax − Amin) where Amax and Amin are maximal and minimal A values, respectively, for each measurement. The plots of Anormversus [Smad2] were analyzed by the nonlinear least-squares analysis using the equation: Anorm = 1/(1 + Kd/[Smad2]).
(§3) The fluorescein-6-aminohexanoyl (F-Ahx)-labeled TβRI GS region peptide (F-Ahx-YDMTTpSGpSGpSGLPLL) was dissolved in dimethyl sulfoxide to yield 1 mg/ml stock solution, F-Ahx-labeled TβRI L45 loop region peptide (F-Ahx-ADNKDNGT) was dissolved in a 3:1 mixture of water and acetonitrile to yield 2.5 mg/ml stock solution. Both peptide solutions were diluted to 1 to 10 μM with 20 mM Tris buffer, pH 7.9, containing 160 mM NaCl for binding studies. In total, 300 μl of the Smad2 (WT or mutant) solution (0–250 μM) was added to a series of 1.5 ml microcentrifuge containing the peptide solution (2.5 μM). After 10-min incubation in the dark, the mixture was transferred to a quartz cuvette with 2-mm path length and fluorescence anisotropy (r) was measured with excitation and emission wavelengths set at 485 and 535 nm, respectively, using Horiba Flurolog-3 spectrofluorometer. Since Po >> Pepo under our conditions, the Kd for the Smad2-peptide binding was determined by the nonlinear least-squares analysis of the binding isotherm using the Equation 1:(1) Pepbound/Pep0=Δr/Δrmax=1/1+kd/P0 where Pepbound, Pep0, and P0 indicate the concentration of bound peptide, total peptide, and total Smad2, respectively, and Δr and Δrmax are the anisotropy change for each P0 and the maximal Δr, respectively.

[2] = system: TβRI GS region peptide (F-Ahx-YDMTTpSGpSGpSGLPLL); assay: Fluorescence anisotropy binding to TβRI GS peptide; details: fluorescence anisotropy; for Kd: 20 mM Tris, pH 7.9, 160 mM NaCl, 10-min incubation, average ±S.D., n = 3, read-out: Kd for peptide binding, GS peptide
Text: as §1, §2, §3

Row | Molecule | nuclear transport after TGF-β stimulation (HeLa cells) | L45 peptide affinity relative to WT [1] | Kd [1] [µM] | GS peptide affinity relative to WT [2] | Kd [2] [µM] | GS peptide affinity relative to WT ([2]; listed as Y420A)
1 | B1 | did not show nuclear transport | WT-like affinity | 67 ± 6 | essentially the same affinity as the WT; also recorded: essentially identical binding curves | 21 ± 5 | 
2 | B2 | did not show nuclear transport | WT-like affinity | 70 ± 7 | essentially the same affinity as the WT | 20 ± 3 | essentially identical binding curves
3 | B3 | did not show nuclear transport | slightly lower affinity | 75 ± 11 | twofold lower affinity than the WT | 44 ± 4 | 
4 | B4 | did not show nuclear transport | lowest affinity | 100 ± 16 | tenfold decrease; also recorded: tenfold lower affinity than the WT | 200 ± 48 | 
5 | B5 | moved from the cytoplasm to the nucleus |  |  |  |  | 
